From IntAct's records for PubMed 30126976

B1: Neuroepithelial cell-transforming gene 1 protein (Homo sapiens), Q7Z628 (parent)
chain: MEPELAAQKQPRPRRRSRRASGLSTEGATGPSADTSGSELDGRCSLRRGSSFTFLTPGPNWDFTLKRKRREKDDDVVSLSSLDLKEPSNKRVRPLARVTSLANLISPVRNGAVRRFGQTIQSFTLRGDHRSPASAQKFSSRSTVPTPAKRRSSALWSEMLDITMKESLTTREIRRQEAIYEMSRGEQDLIEDLKLARKAYHDPMLKLSIMSEEELTHIFGDLDSYIPLHEDLLTRIGEATKPDGTVEQIGHILVSWLPRLNAYRGYCSNQLAAKALLDQKKQDPRVQDFLQRCLESPFSRKLDLWSFLDIPRSRLVKYPLLLKEILKHTPKEHPDVQLLEDAILIIQGVLSDINLKKGESECQYYIDKLEYLDEKQRDPRIEASKVLLCHGELRSKSGHKLYIFLFQDILVLTRPVTRNERHSYQVYRQPIPVQELVLEDLQDGDVRMGGSFRGAFSNSEKAKNIFRIRFHDPSPAQSHTLQANDVFHKQQWFNCIRAAIAPFQSAGSPPELQGLPELHEECEGNHPSARKLTAQRRASTVSSVTQVEVDENAYRCGSGMQMAEDSKSLKTHQTQPGIRRARDKALSGGKRKETLV
B2: Vang-like protein 2 (Homo sapiens), Q9ULK5 (parent)
chain: MDTESQYSGYSYKSGHSRSSRKHRDRRDRHRSKSRDGGRGDKSVTIQAPGEPLLDNESTRGDERDDNWGETTTVVTGTSEHSISHDDLTRIAKDMEDSVPLDCSRHLGVAAGATLALLSFLTPLAFLLLPPLLWREELEPCGTACEGLFISVAFKLLILLLGSWALFFRRPKASLPRVFVLRALLMVLVFLLVVSYWLFYGVRILDARERSYQGVVQFAVSLVDALLFVHYLAVVLLELRQLQPQFTLKVVRSTDGASRFYNVGHLSIQRVAVWILEKYYHDFPVYNPALLNLPKSVLAKKVSGFKVYSLGEENSTNNSTGQSRAVIAAAARRRDNSHNEYYYEEAEHERRVRKRRARLVVAVEEAFTHIKRLQEEEQKNPREVMDPREAAQAIFASMARAMQKYLRTTKQQPYHTMESILQHLEFCITHDMTPKAFLERYLAAGPTIQYHKERWLAKQWTLVSEEPVTNGLKDGIVFLLKRQDFSLVVSTKKVPFFKLSEEFVDPKSHKFVMRLQSETSV
B3: Rho guanine nucleotide exchange factor 16 (Homo sapiens), Q5VV41 (parent)
chain: MAQRHSDSSLEEKLLGHRFHSELRLDAGGNPASGLPMVRGSPRVRDDAAFQPQVPAPPQPRPPGHEEPWPIVLSTESPAALKLGTQQLIPKSLAVASKAKTPARHQSFGAAVLSREAARRDPKLLPAPSFSLDDMDVDKDPGGMLRRNLRNQSYRAAMKGLGKPGGQGDAIQLSPKLQALAEEPSQPHTRSPAKNKKTLGRKRGHKGSFKDDPQLYQEIQERGLNTSQESDDDILDESSSPEGTQKVDATIVVKSYRPAQVTWSQLPEVVELGILDQLSTEERKRQEAMFEILTSEFSYQHSLSILVEEFLQSKELRATVTQMEHHHLFSNILDVLGASQRFFEDLEQRHKAQVLVEDISDILEEHAEKHFHPYIAYCSNEVYQQRTLQKLISSNAAFREALREIERRPACGGLPMLSFLILPMQRVTRLPLLMDTLCLKTQGHSERYKAASRALKAISKLVRQCNEGAHRMERMEQMYTLHTQLDFSKVKSLPLISASRWLLKRGELFLVEETGLFRKIASRPTCYLFLFNDVLVVTKKKSEESYMVQDYAQMNHIQVEKIEPSELPLPGGGNRSSSVPHPFQVTLLRNSEGRQEQLLLSSDSASDRARWIVALTHSERQWQGLSSKGDLPQVEITKAFFAKQADEVTLQQADVVLVLQQEDGWLYGERLRDGETGWFPEDFARFITSRVAVEGNVRRMERLRVETDV
B4: Monocarboxylate transporter 4 (Homo sapiens), O15427 (parent)
chain: MGGAVVDEGPTGVKAPDGGWGWAVLFGCFVITGFSYAFPKAVSVFFKELIQEFGIGYSDTAWISSILLAMLYGTGPLCSVCVNRFGCRPVMLVGGLFASLGMVAASFCRSIIQVYLTTGVITGLGLALNFQPSLIMLNRYFSKRRPMANGLAAAGSPVFLCALSPLGQLLQDRYGWRGGFLILGGLLLNCCVCAALMRPLVVTAQPGSGPPRPSRRLLDLSVFRDRGFVLYAVAASVMVLGLFVPPVFVVSYAKDLGVPDTKAAFLLTILGFIDIFARPAAGFVAGLGKVRPYSVYLFSFSMFFNGLADLAGSTAGDYGGLVVFCIFFGISYGMVGALQFEVLMAIVGTHKFSSAIGLVLLMEAVAVLVGPPSGGKLLDATHVYMYVFILAGAEVLTSSLILLLGNFFCIRKKPKEPQPEVAAAEEEKLHKPPADSGVDLREVEHFLKAEPEKNGEVVHTPETSV
B5: Sodium bicarbonate cotransporter 3 (Homo sapiens), Q9Y6M7 (parent)
chain: MERFRLEKKLPGPDEEAVVDLGKTSSTVNTKFEKEELESHRAVYIGVHVPFSKESRRRHRHRGHKHHHRRRKDKESDKEDGRESPSYDTPSQRVQFILGTEDDDEEHIPHDLFTEMDELCYRDGEEYEWKETARWLKFEEDVEDGGDRWSKPYVATLSLHSLFELRSCILNGTVMLDMRASTLDEIADMVLDNMIASGQLDESIRENVREALLKRHHHQNEKRFTSRIPLVRSFADIGKKHSDPHLLERNGEGLSASRHSLRTGLSASNLSLRGESPLSLLLGHLLPSSRAGTPAGSRCTTPVPTPQNSPPSSPSISRLTSRSSQESQRQAPELLVSPASDDIPTVVIHPPEEDLEAALKGEEQKNEENVDLTPGILASPQSAPGNLDNSKSGEIKGNGSGGSRENSTVDFSKVDMNFMRKIPTGAEASNVLVGEVDFLERPIIAFVRLAPAVLLTGLTEVPVPTRFLFLLLGPAGKAPQYHEIGRSIATLMTDEIFHDVAYKAKDRNDLLSGIDEFLDQVTVLPPGEWDPSIRIEPPKSVPSQEKRKIPVFHNGSTPTLGETPKEAAHHAGPELQRTGRLFGGLILDIKRKAPFFLSDFKDALSLQCLASILFLYCACMSPVITFGGLLGEATEGRISAIESLFGASLTGIAYSLFAGQPLTILGSTGPVLVFEKILYKFCRDYQLSYLSLRTSIGLWTSFLCIVLVATDASSLVCYITRFTEEAFAALICIIFIYEALEKLFDLGETYAFNMHNNLDKLTSYSCVCTEPPNPSNETLAQWKKDNITAHNISWRNLTVSECKKLRGVFLGSACGHHGPYIPDVLFWCVILFFTTFFLSSFLKQFKTKRYFPTKVRSTISDFAVFLTIVIMVTIDYLVGVPSPKLHVPEKFEPTHPERGWIISPLGDNPWWTLLIAAIPALLCTILIFMDQQITAVIINRKEHKLKKGAGYHLDLLMVGVMLGVCSVMGLPWFVAATVLSISHVNSLKVESECSAPGEQPKFLGIREQRVTGLMIFILMGLSVFMTSVLKFIPMPVLYGVFLYMGVSSLKGIQLFDRIKLFGMPAKHQPDLIYLRYVPLWKVHIFTVIQLTCLVLLWVIKVSAAAVVFPMMVLALVFVRKLMDLCFTKRELSWLDDLMPESKKKKEDDKKKKEKEEAERMLQDDDDTVHLPFEGGSLLQIPVKALKYSPDKPVSVKISFEDEPRKKYVDAETSL
B6: Prostaglandin D2 receptor (Homo sapiens), Q13258 (parent)
chain: MKSPFYRCQNTTSVEKGNSAVMGGVLFSTGLLGNLLALGLLARSGLGWCSRRPLRPLPSVFYMLVCGLTVTDLLGKCLLSPVVLAAYAQNRSLRVLAPALDNSLCQAFAFFMSFFGLSSTLQLLAMALECWLSLGHPFFYRRHITLRLGALVAPVVSAFSLAFCALPFMGFGKFVQYCPGTWCFIQMVHEEGSLSVLGYSVLYSSLMALLVLATVLCNLGAMRNLYAMHRRLQRHPRSCTRDCAEPRADGREASPQPLEELDHLLLLALMTVLFTMCSLPVIYRAYYGAFKDVKEKNRTSEEAEDLRALRFLSVISIVDPWIFIIFRSPVFRIFFHKIFIRPLRYRSRCSNSTNMESSL

Variants of: B1
Settings: with dlg1_human DLG1, Q12959
Target sequence in this assay (Q12959 whole entry, looked up): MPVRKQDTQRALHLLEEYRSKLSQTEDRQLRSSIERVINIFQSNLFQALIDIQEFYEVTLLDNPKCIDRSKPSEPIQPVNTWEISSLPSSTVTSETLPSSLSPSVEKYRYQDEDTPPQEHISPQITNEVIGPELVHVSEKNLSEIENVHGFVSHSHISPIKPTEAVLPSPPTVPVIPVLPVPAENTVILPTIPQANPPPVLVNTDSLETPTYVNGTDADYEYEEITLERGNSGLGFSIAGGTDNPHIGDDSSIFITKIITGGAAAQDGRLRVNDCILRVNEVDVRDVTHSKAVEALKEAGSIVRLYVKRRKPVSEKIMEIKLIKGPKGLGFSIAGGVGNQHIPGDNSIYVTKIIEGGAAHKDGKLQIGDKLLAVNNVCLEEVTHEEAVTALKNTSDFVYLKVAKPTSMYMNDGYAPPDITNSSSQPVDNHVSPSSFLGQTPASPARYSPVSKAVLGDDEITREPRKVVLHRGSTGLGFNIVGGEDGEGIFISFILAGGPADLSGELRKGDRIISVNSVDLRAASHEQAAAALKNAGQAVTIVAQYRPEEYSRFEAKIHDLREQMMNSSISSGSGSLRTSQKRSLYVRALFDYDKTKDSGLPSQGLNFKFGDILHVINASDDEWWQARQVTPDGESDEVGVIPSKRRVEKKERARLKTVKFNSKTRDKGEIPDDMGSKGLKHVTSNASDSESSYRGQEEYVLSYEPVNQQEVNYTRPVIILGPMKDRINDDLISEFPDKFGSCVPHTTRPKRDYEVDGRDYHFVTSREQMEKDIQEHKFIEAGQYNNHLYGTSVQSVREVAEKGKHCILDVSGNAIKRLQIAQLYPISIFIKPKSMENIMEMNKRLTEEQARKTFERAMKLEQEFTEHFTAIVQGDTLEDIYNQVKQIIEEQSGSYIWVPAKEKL

| effect of a mutation on the interaction | Variant |
| --- | --- |
| disrupting interaction strength | MEPELAAQKQPRPRRRSRRASGLSTEGATGPSADTSGSELDGRCSLRRGSSFTFLTPGPNWDFTLKRKRREKDDDVVSLSSLDLKEPSNKRVRPLARVTSLANLISPVRNGAVRRFGQTIQSFTLRGDHRSPASAQKFSSRSTVPTPAKRRSSALWSEMLDITMKESLTTREIRRQEAIYEMSRGEQDLIEDLKLARKAYHDPMLKLSIMSEEELTHIFGDLDSYIPLHEDLLTRIGEATKPDGTVEQIGHILVSWLPRLNAYRGYCSNQLAAKALLDQKKQDPRVQDFLQRCLESPFSRKLDLWSFLDIPRSRLVKYPLLLKEILKHTPKEHPDVQLLEDAILIIQGVLSDINLKKGESECQYYIDKLEYLDEKQRDPRIEASKVLLCHGELRSKSGHKLYIFLFQDILVLTRPVTRNERHSYQVYRQPIPVQELVLEDLQDGDVRMGGSFRGAFSNSEKAKNIFRIRFHDPSPAQSHTLQANDVFHKQQWFNCIRAAIAPFQSAGSPPELQGLPELHEECEGNHPSARKLTAQRRASTVSSVTQVEVDENAYRCGSGMQMAEDSKSLKTHQTQPGIRRARDKALSGGKRKEELV [T594E] |

Variants of: B2
Settings: with dlg1_human DLG1, Q12959
Target sequence in this assay (Q12959 whole entry, looked up): as the sequence (Q12959 whole entry, looked up) above

| effect of a mutation on the interaction | Variant |
| --- | --- |
| increasing interaction strength | MDTESQYSGYSYKSGHSRSSRKHRDRRDRHRSKSRDGGRGDKSVTIQAPGEPLLDNESTRGDERDDNWGETTTVVTGTSEHSISHDDLTRIAKDMEDSVPLDCSRHLGVAAGATLALLSFLTPLAFLLLPPLLWREELEPCGTACEGLFISVAFKLLILLLGSWALFFRRPKASLPRVFVLRALLMVLVFLLVVSYWLFYGVRILDARERSYQGVVQFAVSLVDALLFVHYLAVVLLELRQLQPQFTLKVVRSTDGASRFYNVGHLSIQRVAVWILEKYYHDFPVYNPALLNLPKSVLAKKVSGFKVYSLGEENSTNNSTGQSRAVIAAAARRRDNSHNEYYYEEAEHERRVRKRRARLVVAVEEAFTHIKRLQEEEQKNPREVMDPREAAQAIFASMARAMQKYLRTTKQQPYHTMESILQHLEFCITHDMTPKAFLERYLAAGPTIQYHKERWLAKQWTLVSEEPVTNGLKDGIVFLLKRQDFSLVVSTKKVPFFKLSEEFVDPKSHKFVMRLQSETEV [S520E] |
| with no effect | MDTESQYSGYSYKSGHSRSSRKHRDRRDRHRSKSRDGGRGDKSVTIQAPGEPLLDNESTRGDERDDNWGETTTVVTGTSEHSISHDDLTRIAKDMEDSVPLDCSRHLGVAAGATLALLSFLTPLAFLLLPPLLWREELEPCGTACEGLFISVAFKLLILLLGSWALFFRRPKASLPRVFVLRALLMVLVFLLVVSYWLFYGVRILDARERSYQGVVQFAVSLVDALLFVHYLAVVLLELRQLQPQFTLKVVRSTDGASRFYNVGHLSIQRVAVWILEKYYHDFPVYNPALLNLPKSVLAKKVSGFKVYSLGEENSTNNSTGQSRAVIAAAARRRDNSHNEYYYEEAEHERRVRKRRARLVVAVEEAFTHIKRLQEEEQKNPREVMDPREAAQAIFASMARAMQKYLRTTKQQPYHTMESILQHLEFCITHDMTPKAFLERYLAAGPTIQYHKERWLAKQWTLVSEEPVTNGLKDGIVFLLKRQDFSLVVSTKKVPFFKLSEEFVDPKSHKFVMRLQEETEV [S517E;S520E] |

Variants of: B3
Settings: with scrib_human SCRIB
Target sequence in this assay (Q14160 whole entry): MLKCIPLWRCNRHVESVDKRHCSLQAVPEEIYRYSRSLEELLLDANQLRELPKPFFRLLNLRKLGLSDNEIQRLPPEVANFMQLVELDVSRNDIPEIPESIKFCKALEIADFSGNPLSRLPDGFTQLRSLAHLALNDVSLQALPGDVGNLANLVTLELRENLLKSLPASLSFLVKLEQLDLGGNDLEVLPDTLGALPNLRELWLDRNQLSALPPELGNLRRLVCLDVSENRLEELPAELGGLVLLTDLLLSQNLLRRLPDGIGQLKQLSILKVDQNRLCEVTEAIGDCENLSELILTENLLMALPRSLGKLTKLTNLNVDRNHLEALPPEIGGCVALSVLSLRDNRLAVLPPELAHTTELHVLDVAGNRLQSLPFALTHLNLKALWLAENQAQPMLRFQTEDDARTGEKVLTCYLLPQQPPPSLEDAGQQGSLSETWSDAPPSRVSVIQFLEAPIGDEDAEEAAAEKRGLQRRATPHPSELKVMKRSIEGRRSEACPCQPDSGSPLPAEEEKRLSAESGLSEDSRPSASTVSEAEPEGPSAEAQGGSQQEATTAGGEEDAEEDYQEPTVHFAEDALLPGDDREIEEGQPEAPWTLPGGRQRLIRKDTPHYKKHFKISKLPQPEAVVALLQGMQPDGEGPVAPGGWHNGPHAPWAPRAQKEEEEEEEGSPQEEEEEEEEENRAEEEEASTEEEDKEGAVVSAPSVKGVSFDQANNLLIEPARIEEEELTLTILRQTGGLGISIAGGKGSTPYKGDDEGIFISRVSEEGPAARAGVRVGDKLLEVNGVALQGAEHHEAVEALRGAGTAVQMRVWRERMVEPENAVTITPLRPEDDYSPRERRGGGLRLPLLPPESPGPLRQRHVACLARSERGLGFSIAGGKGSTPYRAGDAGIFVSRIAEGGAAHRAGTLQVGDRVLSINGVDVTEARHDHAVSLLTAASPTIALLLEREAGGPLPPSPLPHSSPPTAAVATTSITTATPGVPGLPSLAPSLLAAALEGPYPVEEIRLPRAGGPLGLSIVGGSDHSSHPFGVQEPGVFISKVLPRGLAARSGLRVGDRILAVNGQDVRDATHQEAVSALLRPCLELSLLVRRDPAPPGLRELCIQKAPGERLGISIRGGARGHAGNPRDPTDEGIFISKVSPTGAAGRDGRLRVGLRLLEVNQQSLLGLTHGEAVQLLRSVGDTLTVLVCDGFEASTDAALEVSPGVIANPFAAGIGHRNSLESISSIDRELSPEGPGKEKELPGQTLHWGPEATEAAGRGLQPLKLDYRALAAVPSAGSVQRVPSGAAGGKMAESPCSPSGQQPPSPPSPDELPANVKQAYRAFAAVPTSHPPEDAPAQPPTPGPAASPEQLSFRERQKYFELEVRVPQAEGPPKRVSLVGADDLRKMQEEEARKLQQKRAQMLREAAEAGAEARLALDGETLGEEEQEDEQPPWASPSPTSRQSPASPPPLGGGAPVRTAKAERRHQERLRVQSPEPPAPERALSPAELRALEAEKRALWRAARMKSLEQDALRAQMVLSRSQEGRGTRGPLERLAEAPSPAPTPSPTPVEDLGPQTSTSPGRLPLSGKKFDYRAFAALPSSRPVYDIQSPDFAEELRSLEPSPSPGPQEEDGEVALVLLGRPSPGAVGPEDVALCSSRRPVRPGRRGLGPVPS

| effect of a mutation on the interaction | Variant |
| --- | --- |
| disrupting interaction strength | T707E |

Variants of: B3
Settings: with dlg1_human DLG1, Q12959
Target sequence in this assay (Q12959 whole entry, looked up): as the sequence (Q12959 whole entry, looked up) above

| effect of a mutation on the interaction | Variant |
| --- | --- |
| disrupting interaction strength | T707E |

Variants of: B4
Settings: with scrib_human SCRIB
Target sequence in this assay (Q14160 whole entry): as the sequence (Q14160 whole entry) above

| effect of a mutation on the interaction | Variant |
| --- | --- |
| with no effect | MGGAVVDEGPTGVKAPDGGWGWAVLFGCFVITGFSYAFPKAVSVFFKELIQEFGIGYSDTAWISSILLAMLYGTGPLCSVCVNRFGCRPVMLVGGLFASLGMVAASFCRSIIQVYLTTGVITGLGLALNFQPSLIMLNRYFSKRRPMANGLAAAGSPVFLCALSPLGQLLQDRYGWRGGFLILGGLLLNCCVCAALMRPLVVTAQPGSGPPRPSRRLLDLSVFRDRGFVLYAVAASVMVLGLFVPPVFVVSYAKDLGVPDTKAAFLLTILGFIDIFARPAAGFVAGLGKVRPYSVYLFSFSMFFNGLADLAGSTAGDYGGLVVFCIFFGISYGMVGALQFEVLMAIVGTHKFSSAIGLVLLMEAVAVLVGPPSGGKLLDATHVYMYVFILAGAEVLTSSLILLLGNFFCIRKKPKEPQPEVAAAEEEKLHKPPADSGVDLREVEHFLKAEPEKNGEVVHTPETEV [S464E] |

Variants of: B5
Settings: with scrib_human SCRIB
Target sequence in this assay (Q14160 whole entry): as the sequence (Q14160 whole entry) above

| effect of a mutation on the interaction | Variant |
| --- | --- |
| with no effect | S1213E |

Variants of: B6
Settings: with scrib_human SCRIB
Target sequence in this assay (Q14160 whole entry): as the sequence (Q14160 whole entry) above

| effect of a mutation on the interaction | Variant |
| --- | --- |
| causing an interaction | MKSPFYRCQNTTSVEKGNSAVMGGVLFSTGLLGNLLALGLLARSGLGWCSRRPLRPLPSVFYMLVCGLTVTDLLGKCLLSPVVLAAYAQNRSLRVLAPALDNSLCQAFAFFMSFFGLSSTLQLLAMALECWLSLGHPFFYRRHITLRLGALVAPVVSAFSLAFCALPFMGFGKFVQYCPGTWCFIQMVHEEGSLSVLGYSVLYSSLMALLVLATVLCNLGAMRNLYAMHRRLQRHPRSCTRDCAEPRADGREASPQPLEELDHLLLLALMTVLFTMCSLPVIYRAYYGAFKDVKEKNRTSEEAEDLRALRFLSVISIVDPWIFIIFRSPVFRIFFHKIFIRPLRYRSRCSNSTNMESEL [S358E] |
